Results as given in the Human Domainome abundance scans (Beltran et al. 2025).
± gives the uncertainty stated by the source.

B1: Double-stranded RNA-binding protein Staufen homolog 1, residues 183 to 249; numbered along this chain, O95793 (parent)
chain: KSEISQVFEIALKRNLPVNFEVARESGPPHMKNFVTKVSVGEFVGEGEGKSKKISKKNAAIAVLEEL

Variants of: B1
Test: abundance fitness (aPCA) (normalised: wild type 0, dead -1); higher = more abundant; growth selection in yeast, the domain comes from the species named
Settings: Homo sapiens

In order of falling abundance fitness:
1. KSEISQVFEIALKRNLPVNFEVARESGPPHMKNFVTKVSVGEFVGEGEGKTKKISKKNAAIAVLEEL [S51T]  0.056 ± 0.067
2. KSEISQVFEIALKRNLPVNFEVARESGPPHMKNFVTKVSVGEFVGEGEGKSKRISKKNAAIAVLEEL [K53R]  -0.042 ± 0.04
3. KSEISQVFEIALKRNLPVNFEVARESGPPHMKNFVTKVSVGEFVGEGEGKSKEISKKNAAIAVLEEL [K53E]  -0.049 ± 0.058
4. KSEISQVFEIALKRNLPVNFEVARESGPPHMKNFVTKVSVGEFVGEGEGKSRKISKKNAAIAVLEEL [K52R]  -0.098 ± 0.039
5. KSEISQVFEIALKRNLPVNFEVARESGPPHMKNFVTKVSVGEFVGEGEGKSAKISKKNAAIAVLEEL [K52A]  -0.125 ± 0.043
6. KSEISQVFEIALKRNLPVNFEVARESGPPHMKNFVTKVSVGEFVGEGEGKSKAISKKNAAIAVLEEL [K53A]  -0.129 ± 0.054
7. KSEISQVFEIALKRNLPVNFEVARESGPPHMKNFVTKVSVGEFVGEGEGKSKFISKKNAAIAVLEEL [K53F]  -0.175 ± 0.075
8. KSEISQVFEIALKRNLPVNFEVARESGPPHMKNFVTKVSVGEFVGEGEGKSIKISKKNAAIAVLEEL [K52I]  -0.175 ± 0.074
9. KSEISQVFEIALKRNLPVNFEVARESGPPHMKNFVTKVSVGEFVGEGEGKSPKISKKNAAIAVLEEL [K52P]  -0.179 ± 0.052
10. KSEISQVFEIALKRNLPVNFEVARESGPPHMKNFVTKVSVGEFVGEGEGKSKDISKKNAAIAVLEEL [K53D]  -0.192 ± 0.066
11. KSEISQVFEIALKRNLPVNFEVARESGPPHMKNFVTKVSVGEFVGEGEGKSKQISKKNAAIAVLEEL [K53Q]  -0.207 ± 0.065
12. KSEISQVFEIALKRNLPVNFEVARESGPPHMKNFVTKVSVGEFVGEGEGKSKWISKKNAAIAVLEEL [K53W]  -0.214 ± 0.053
13. KSEISQVFEIALKRNLPVNFEVARESGPPHMKNFVTKVSVGEFVGEGEGKSKVISKKNAAIAVLEEL [K53V]  -0.22 ± 0.042
14. KSEISQVFEIALKRNLPVNFEVARESGPPHMKNFVTKVSVGEFVGEGEGKSKIISKKNAAIAVLEEL [K53I]  -0.225 ± 0.067
15. KSEISQVFEIALKRNLPVNFEVARESGPPHMKNFVTKVSVGEFVGEGEGKSLKISKKNAAIAVLEEL [K52L]  -0.228 ± 0.039
16. KSEISQVFEIALKRNLPVNFEVARESGPPHMKNFVTKVSVGEFVGEGEGKSKLISKKNAAIAVLEEL [K53L]  -0.235 ± 0.048
17. KSEISQVFEIALKRNLPVNFEVARESGPPHMKNFVTKVSVGEFVGEGEGKSKGISKKNAAIAVLEEL [K53G]  -0.243 ± 0.036
18. KSEISQVFEIALKRNLPVNFEVARESGPPHMKNFVTKVSVGEFVGEGEGKSKNISKKNAAIAVLEEL [K53N]  -0.243 ± 0.065
19. KSEISQVFEIALKRNLPVNFEVARESGPPHMKNFVTKVSVGEFVGEGEGKSVKISKKNAAIAVLEEL [K52V]  -0.243 ± 0.044
20. KSEISQVFEIALKRNLPVNFEVARESGPPHMKNFVTKVSVGEFVGEGEGKRKKISKKNAAIAVLEEL [S51R]  -0.244 ± 0.07
21. KSEISQVFEIALKRNLPVNFEVARESGPPHMKNFVTKVSVGEFVGEGEGKSKHISKKNAAIAVLEEL [K53H]  -0.263 ± 0.077
22. KSEISQVFEIALKRNLPVNFEVARESGPPHMKNFVTKVSVGEFVGEGEGKSKMISKKNAAIAVLEEL [K53M]  -0.278 ± 0.073
23. KSEISQVFEIALKRNLPVNFEVARESGPPHMKNFVTKVSVGEFVGEGEGKSKPISKKNAAIAVLEEL [K53P]  -0.284 ± 0.07
24. KSEISQVFEIALKRNLPVNFEVARESGPPHMKNFVTKVSVGEFVGEGEGKSKCISKKNAAIAVLEEL [K53C]  -0.284 ± 0.055
25. KSEISQVFEIALKRNLPVNFEVARESGPPHMKNFVTKVSVGEFVGEGEGKSMKISKKNAAIAVLEEL [K52M]  -0.29 ± 0.058
26. KSEISQVFEIALKRNLPVNFEVARESGPPHMKNFVTKVSVGEFVGEGEGKSKTISKKNAAIAVLEEL [K53T]  -0.311 ± 0.057
27. KSEISQVFEIALKRNLPVNFEVARESGPPHMKNFVTKVSVGEFVGEGEGKSQKISKKNAAIAVLEEL [K52Q]  -0.318 ± 0.064
28. KSEISQVFEIALKRNLPVNFEVARESGPPHMKNFVTKVSVGEFVGEGEGKSYKISKKNAAIAVLEEL [K52Y]  -0.329 ± 0.078
29. KSEISQVFEIALKRNLPVNFEVARESGPPHMKNFVTKVSVGEFVGEGEGKSSKISKKNAAIAVLEEL [K52S]  -0.416 ± 0.049
30. KSEISQVFEIALKRNLPVNFEVARESGPPHMKNFVTKVSVGEFVGEGEGKSCKISKKNAAIAVLEEL [K52C]  -0.432 ± 0.075
31. KSEISQVFEIALKRNLPVNFEVARESGPPHMKNFVTKVSVGEFVGEGEGKSFKISKKNAAIAVLEEL [K52F]  -0.481 ± 0.082
32. KSEISQVFEIALKRNLPVNFEVARESGPPHMKNFVTKVSVGEFVGEGEGKSHKISKKNAAIAVLEEL [K52H]  -0.518 ± 0.084
33. KSEISQVFEIALKRNLPVNFEVARESGPPHMKNFVTKVSVGEFVGEGEGKSTKISKKNAAIAVLEEL [K52T]  -0.52 ± 0.053
34. KSEISQVFEIALKRNLPVNFEVARESGPPHMKNFVTKVSVGEFVGEGEGKSKKISCKNAAIAVLEEL [K56C]  -0.524 ± 0.11
35. KSEISQVFEIALKRNLPVNFEVARESGPPHMKNFVTKVSVGEFVGEGEGKWKKISKKNAAIAVLEEL [S51W]  -0.578 ± 0.19
36. KSEISQVFEIALKRNLPVNFEVARESGPPHMKNFVTKVSVGEFVGEGEGKSDKISKKNAAIAVLEEL [K52D]  -0.587 ± 0.067
37. KSEISQVFEIALKRNLPVNFEVARESGPPHMKNFVTKVSVGEFVGEGEGKSGKISKKNAAIAVLEEL [K52G]  -0.603 ± 0.046
38. KSEISQVFEIALKRNLPVNFEVARESGPPHMKNFVTKVSVGEFVGEGEGKVKKISKKNAAIAVLEEL [S51V]  -0.615 ± 0.071
39. KSEISQVFEIALKRNLPVNFEVARESGPPHMKNFVTKVSVGEFVGEGEGKSNKISKKNAAIAVLEEL [K52N]  -0.622 ± 0.088
40. KSEISQVFEIALKRNLPVNFEVARESGPPHMKNFVTKVSVGEFVGEGEGKYKKISKKNAAIAVLEEL [S51Y]  -0.657 ± 0.087
